According to the supplement of paper PMC10126150:
± gives the standard deviation of the averaged measurements.

Test system: ATP
Assay: switch fluorescence ratio, 500 uM ATP over buffer (Cy3 cluster intensity, sum of 5 cycles each) (fold (ratio)); higher = stronger signal-on switching upon ATP binding; sequences stand for … in TCGTCGGCAGCGTCAGATGTGTATAAGAGACAGTTTTTTTTTTTTTTTTTTTTTTTTT…TC
Details: aptamer strand: ATP DNA aptamer (quencher-CACCTGGGGGAGTATTGCGGAGGAAGG + anchor), 100 nM annealed; ATP concentration: 500 uM
Method in brief: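 Exposure to 500 uM ATP lasted 15 min at 22 °C before imaging, and a selection-buffer image was taken beforehand, for Cy3-labelled switching-strand clusters on a modified Illumina MiSeq flow-cell annealed to 100 nM quencher-labelled ATP aptamer. Five buffer/ATP cycles were run with NaOH stripping and re-annealing between them. The fluorescence ratio per cluster is summed target-cycle over summed buffer-cycle Cy3 intensity, averaged per switch-domain sequence. Clusters outside 100-1000 RFU were excluded.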

Row | Sequence | switch fluorescence ratio
1 | AAATGAATTT | 0.976 ± 0.014
2 | AAATGAGGGG | 0.992 ± 0.03
3 | AAATGCTACG | 1.01 ± 0.029
4 | AAATGCTTAG | 0.995 ± 0.011
5 | AAATGGAGTA | 1.01 ± 0.007
6 | AAATGGGAGA | 0.992 ± 0.026
7 | AAATGGGGTC | 0.998 ± 0.023
8 | AAATGGGTGA | 1.05 ± 0.017
9 | AAATGGGTTG | 1 ± 0.01
10 | AAATGGTAAT | 0.978 ± 0.036
11 | AAATGTGCGA | 0.977 ± 0.019
12 | AAATGTGGCA | 0.9862 ± 0.002
13 | AAATGTGTGG | 0.977 ± 0.019
14 | AAATGTTCTG | 0.948 ± 0.021
15 | AAATGTTTTG | 1.03 ± 0.026
16 | AAATTAAGGG | 1.02 ± 0.03
17 | AAATTAATCA | 1.04 ± 0.094
18 | AAATTACAGT | 0.99493 ± 0.00079
19 | AAATTATGCG | 0.99 ± 0.023
20 | AAATTATTCG | 1.03 ± 0.045
21 | AAATTCACTT | 0.997 ± 0.021
22 | AAATTCCGTG | 0.978 ± 0.043
23 | AAATTCTTCT | 1.04 ± 0.04
24 | AAATTGAAAT | 1.01 ± 0.031
25 | AAATTGATGG | 1 ± 0.084

Row | Sequence | switch fluorescence ratio
26 | AAATTGCTGT | 1.012 ± 0.0069
27 | AAATTGGCAG | 1.06 ± 0.16
28 | AAATTGTGTG | 0.999 ± 0.0037
29 | AAATTGTTTG | 0.989 ± 0.041
30 | AAATTTGCCA | 0.9566 ± 0.0066
31 | AAATTTGGTA | 1.04 ± 0.021
32 | AAATTTTACT | 1.02 ± 0.031
33 | AAATTTTGGC | 1.1 ± 0.042
34 | AACAACAGGA | 1.03 ± 0.045
35 | AACAACATAG | 1.02 ± 0.036
36 | AACAAGCTAT | 1.03 ± 0.055
37 | AACAAGGGCG | 1.03 ± 0.018
38 | AACAGAGGGG | 1.01 ± 0.018
39 | AACAGAGTAG | 0.976 ± 0.028
40 | AACAGATGGA | 1.16 ± 0.3
41 | AACAGGCGGG | 0.993 ± 0.027
42 | AACAGGGAAG | 1.02 ± 0.012
43 | AACAGGGGGA | 1.09 ± 0.14
44 | AACAGGGTGG | 1.016 ± 0.0021
45 | AACAGGGTTT | 1.01 ± 0.075
46 | AACAGTATTT | 1.04 ± 0.011
47 | AACAGTGAGC | 1.039 ± 0.0056
48 | AACAGTGTTT | 0.971 ± 0.065
49 | AACATACAGG | 1.28 ± 0.019
50 | AACATAGGTC | 1.06 ± 0.04

Row | Sequence | switch fluorescence ratio
51 | AACATAGTCA | 1.006 ± 0.0024
52 | AACATATTGG | 1.01 ± 0.073
53 | AACATGGGTT | 1.01 ± 0.031
54 | AACATGTCCT | 1.04 ± 0.031
55 | AACATTCGTT | 1.034 ± 0.0042
56 | AACATTGGTC | 1.01 ± 0.017
57 | AACCACAGGA | 1.057 ± 0.0019
58 | AACCACTTTA | 1.06 ± 0.021
59 | AACCAGAAGG | 1.01 ± 0.035
60 | AACCAGTGGC | 1.06 ± 0.079
61 | AACCAGTTTT | 0.98 ± 0.027
62 | AACCATCGGG | 0.976 ± 0.013
63 | AACCCATTTG | 1.29 ± 0.48
64 | AACCCGTTTC | 1.09 ± 0.07
65 | AACCGAACGA | 2.09 ± 0.072
66 | AACCGCGCTT | 1.18 ± 0.083
67 | AACCGGCTTA | 0.999 ± 0.026
68 | AACCGGGGAC | 1.31 ± 0.23
69 | AACCGTTTTT | 1.05 ± 0.063
70 | AACCTATTAT | 0.998 ± 0.019
71 | AACCTCTCAT | 1.08 ± 0.011
72 | AACCTGGGGA | 1.12 ± 0.19
73 | AACCTGGGGC | 1.15 ± 0.044
74 | AACCTGGGGT | 1.02 ± 0.0073
75 | AACCTTATCA | 1.07 ± 0.02

Row | Sequence | switch fluorescence ratio
76 | AACCTTTTGG | 1.03 ± 0.048
77 | AACGAGAGGA | 0.986 ± 0.012
78 | AACGCGACAT | 1.29 ± 0.022
79 | AACGCGGGGG | 0.983 ± 0.044
80 | AACGCGGTGG | 0.941 ± 0.017
81 | AACGGCCGTG | 1.02 ± 0.046
82 | AACGGCGGTG | 1.01 ± 0.019
83 | AACGGGCCAG | 0.997 ± 0.028
84 | AACGGTGCGG | 1.01 ± 0.026
85 | AACGGTGGTC | 1.03 ± 0.075
86 | AACGTAAATA | 1.11 ± 0.053
87 | AACGTAGATA | 1.042 ± 0.0098
88 | AACGTAGGTA | 1.038 ± 0.0051
89 | AACGTATGGG | 1.03 ± 0.039
90 | AACGTATGTT | 0.9895 ± 0.0028
91 | AACGTCTGGA | 0.9725 ± 0.0037
92 | AACGTGGCGA | 1.03 ± 0.047
93 | AACGTGTGGA | 0.9979 ± 0.0093
94 | AACGTTAATT | 1.025 ± 0.0081
95 | AACGTTGCTT | 1.01 ± 0.013
96 | AACGTTGGAG | 1.02 ± 0.019
97 | AACTAAATCT | 1.023 ± 0.00042
98 | AACTAACGTG | 1.3 ± 0.056
99 | AACTACCAGA | 1.062 ± 0.0045
100 | AACTAGCCGG | 0.961 ± 0.025

Row | Sequence | switch fluorescence ratio
101 | AACTAGGCGC | 0.9875 ± 0.0065
102 | AACTAGGGCT | 0.976 ± 0.028
103 | AACTATTCGG | 0.9788 ± 0.0054
104 | AACTCCAGGG | 1.35 ± 0.2
105 | AACTCCTAAG | 1.03 ± 0.021
106 | AACTCGGGGT | 1.02 ± 0.05
107 | AACTCTGTTA | 0.982 ± 0.03
108 | AACTGCAATT | 2 ± 1.1
109 | AACTGGATAT | 1.04 ± 0.017
110 | AACTGGGGAA | 0.973 ± 0.016
111 | AACTGGGGAT | 0.9809 ± 0.0018
112 | AACTGGGGGA | 1.06 ± 0.054
113 | AACTGGGGTA | 0.977 ± 0.01
114 | AACTGGGGTT | 0.9868 ± 0.0035
115 | AACTGTAGAC | 1.121 ± 0.0022
116 | AACTGTGGAT | 0.999 ± 0.034
117 | AACTGTGTAC | 1.056 ± 0.0085
118 | AACTGTGTTT | 0.983 ± 0.04
119 | AACTGTTCTT | 1.01 ± 0.011
120 | AACTGTTTGC | 0.983 ± 0.04
121 | AACTTGGCAT | 1.02 ± 0.011
122 | AACTTGGTGG | 0.944 ± 0.033
123 | AACTTGTCAT | 1 ± 0.0063
124 | AACTTTATCC | 1.09 ± 0.042
125 | AACTTTATTT | 0.992 ± 0.018

Row | Sequence | switch fluorescence ratio
126 | AAGAAGAACA | 1.02 ± 0.02
127 | AAGAAGGAAC | 1 ± 0.02
128 | AAGAAGGATG | 0.982 ± 0.049
129 | AAGAAGGGAG | 0.982 ± 0.01
130 | AAGAAGGTTG | 0.9847 ± 0.0061
131 | AAGAAGTTGC | 0.9861 ± 0.0034
132 | AAGAAGTTTT | 1 ± 0.035
133 | AAGACCGGGG | 1.0215 ± 0.00047
134 | AAGACTCACG | 1.05 ± 0.052
135 | AAGACTGTGC | 1.01 ± 0.022
136 | AAGAGAGTAT | 0.992 ± 0.0083
137 | AAGAGGGGAA | 0.988 ± 0.062
138 | AAGAGGGTTC | 1.02 ± 0.081
139 | AAGAGGTAGT | 1.02 ± 0.015
140 | AAGAGGTATA | 1.01 ± 0.032
141 | AAGAGGTTTG | 0.949 ± 0.013
142 | AAGAGTTCTT | 1.01 ± 0.03
143 | AAGATAGGGA | 0.9792 ± 0.0035
144 | AAGATAGGGG | 1 ± 0.023
145 | AAGATATAGA | 1.014 ± 0.0027
146 | AAGATATAT | 0.984 ± 0.035
147 | AAGATATTCT | 1.027 ± 0.0091
148 | AAGATGGCAG | 0.986 ± 0.029
149 | AAGATGTATG | 0.99 ± 0.02
150 | AAGATGTTAG | 0.9926 ± 0.0062

Row | Sequence | switch fluorescence ratio
151 | AAGATGTTTG | 0.975 ± 0.021
152 | AAGATTCTCG | 1.004 ± 0.0095
153 | AAGATTTTGG | 0.979 ± 0.015
154 | AAGCAAATCT | 1.18 ± 0.04
155 | AAGCAACAGT | 1.094 ± 0.0035
156 | AAGCAGCCCT | 1.02 ± 0.015
157 | AAGCAGGGAT | 0.999 ± 0.033
158 | AAGCATAGGT | 0.995 ± 0.018
159 | AAGCCAAGTA | 1 ± 0.023
160 | AAGCCAGGCC | 1.03 ± 0.025
161 | AAGCCCCTTG | 0.992 ± 0.034
162 | AAGCCGTCGG | 1.02 ± 0.013
163 | AAGCCTAATG | 0.996 ± 0.017
164 | AAGCCTATTG | 0.961 ± 0.017
165 | AAGCCTGGAG | 1.02 ± 0.026
166 | AAGCCTGGTG | 1.6 ± 0.063
167 | AAGCCTTGGG | 1.02 ± 0.022
168 | AAGCCTTTGC | 1.052 ± 0.0041
169 | AAGCGCCTTT | 0.985 ± 0.02
170 | AAGCGCTGTT | 1.003 ± 0.0073
171 | AAGCGGACGG | 0.9536 ± 0.0046
172 | AAGCGGCGTA | 1.01 ± 0.042
173 | AAGCGGCTTC | 0.988 ± 0.013
174 | AAGCGGTAGG | 1.03 ± 0.015
175 | AAGCGGTGAG | 0.989 ± 0.031

Row | Sequence | switch fluorescence ratio
176 | AAGCTAGTAA | 0.865 ± 0.012
177 | AAGCTGGCGG | 0.9911 ± 0.0096
178 | AAGCTTGAAG | 1.01 ± 0.013
179 | AAGGAAGAAA | 0.974 ± 0.068
180 | AAGGAAGACT | 0.974 ± 0.021
181 | AAGGAAGGAG | 1.03 ± 0.038
182 | AAGGAATAGC | 1.044 ± 0.002
183 | AAGGAGGGAG | 0.992 ± 0.026
184 | AAGGAGGTTG | 0.999 ± 0.053
185 | AAGGAGTATT | 1.01 ± 0.026
186 | AAGGAGTTGG | 0.989 ± 0.025
187 | AAGGATGGGA | 1 ± 0.023
188 | AAGGATGTGT | 0.98 ± 0.012
189 | AAGGATTATA | 0.985 ± 0.061
190 | AAGGATTCCA | 0.981 ± 0.014
191 | AAGGCCTTCG | 1.12 ± 0.021
192 | AAGGCGCGGC | 0.9694 ± 0.0088
193 | AAGGCGGCAT | 1 ± 0.044
194 | AAGGCGGCGG | 0.991 ± 0.034
195 | AAGGCGGGGT | 0.997 ± 0.033
196 | AAGGCGGTCA | 1.01 ± 0.04
197 | AAGGCGTCGG | 0.993 ± 0.026
198 | AAGGCTGTAA | 0.97831 ± 0.0009
199 | AAGGGAAAAA | 1.03 ± 0.092
200 | AAGGGAAAGA | 1.02 ± 0.061
